Results on two substances are retold here after patent US20210324028A1.

Where two headings read alike, the source gives them in different places.

What all share (assay): SPR, steady state
In experiment [1] the target is human IL-2Rβ (human) (UniProt P14784).
Experiment [2] has the same target. This is another data set of the same source.
A further experiment has as its target human IL-15Rα (human) (UniProt Q13261).

Chain of human IL-2Rβ (human) (P14784 27-240 limits assumed): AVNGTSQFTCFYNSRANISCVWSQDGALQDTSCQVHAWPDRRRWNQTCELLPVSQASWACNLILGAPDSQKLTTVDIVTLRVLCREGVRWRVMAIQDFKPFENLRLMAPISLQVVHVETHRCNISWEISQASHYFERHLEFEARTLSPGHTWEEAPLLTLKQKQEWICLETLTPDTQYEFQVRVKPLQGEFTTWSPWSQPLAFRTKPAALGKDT
Chain of human IL-15Rα (human) (Q13261 31-205 limits assumed): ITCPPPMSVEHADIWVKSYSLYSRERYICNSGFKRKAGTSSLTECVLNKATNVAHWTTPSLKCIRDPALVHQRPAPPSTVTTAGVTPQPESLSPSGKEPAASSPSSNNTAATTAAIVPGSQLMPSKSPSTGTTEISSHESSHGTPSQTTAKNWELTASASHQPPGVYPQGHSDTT

“IL-15Rasu-IL-15 (non-fusion, wild-type) (from UniProt Q13261 31-95)”: the values for the Kd with human IL-2Rβ (human) [1] and with human IL-2Rβ (human) [2] were 69.6 nM and 54.4 nM, respectively.
In the case of hIL-15 V49R/E64 N/S (ligand), the figures for the Kd in the experiment with human IL-15Rα (human) and in the experiment with human IL-2Rβ (human) [2] were 130 nM and over 500 nM, respectively.
